According to patent US20230265198A1 (TWIST BIOSCIENCE, published 2023):
Changes are numbered by the printed parent chain.

B1: NRP1-134 (antibody, IgG2, V domains shown)
VH: EVQLLESGGGLVQPGGSLRLSCAASGFTFSNYGVSWVRQAPGKGLEWVSEISPSGKKKYYADSVKGRFTISRDNSKNTLYLQMNSLRAEDTAVYYCAKTTDIQRLNSAFDYWGQGTLVTVSS
VL: DIQMTQSPSSLSASVGDRVTITCRASQPIAYFLSWYQQKPGKAPKLLIYDASSLHTGVPSRFSGSGSGTDFTLTISSLQPEDFATYYCSSRDKSGSRLVTFGQGTKVEIK
B2: NRP1-128 (antibody, IgG2, V domains shown)
VH: EVQLLESGGGLVQPGGSLRLSCAASGFTFSRYAMNWVRQAPGKGLEWVSAISGSGGNTYYADSVKGRFTISRDNSKNTLYLQMNSLRAEDTAVYYCARVRRGGATDYWGQGTLVTVSS
VL: DIQMTQSPSSLSASVGDRVTITCRASQDVSSGVAWYQQKPGKAPKLLIYGKNIRPSGVPSRFSGSGSGTDFTLTISSLQPEDFATYYCQQTYSPPLTFGQGTKVEIK
B3: NRP1-204 (antibody, IgG2, V domains shown)
VH: EVQLLESGGGLVQPGGSLRLSCAASGFTFSAFAMSWVRQAPGKGLEWVSGTSGSGGSTYYADSVKGRFTISRDNSKNTLYLQMNSLRAEDTAVYYCARHRAYSYGLDYWGQGTLVTVSS
VL: DIQMTQSPSSLSASVGDRVTITCRARQSISTYLNWYQQKPGKAPKLLIYSASTLESGVPSRFSGSGSGTDFTLTISSLQPEDFATYYCQQSYRTPWTFGGGTKVEIK
B4: NRP1-210 (antibody, IgG2, V domains shown)
VH: EVQLLESGGGLVQPGGSLRLSCAASGFTFSSYVMAWVRQAPGKGLEWVSTISASGGTTYYADSVKGRFTISRDNSKNTLYLQMNSLRAEDTAVYYCAKVGSGWYFWGQGTLVTVSS
VL: B3 VL with A25T, R26S, T31R, S50A, T53S, E55Q, S56G, R93T, T94V, W96I
B5: NRP1-125 (antibody, IgG2, V domains shown)
VH: EVQLLESGGGLVQPGGSLRLSCAASGFTFSGYDMQWVRQAPGKGLEWVSSISGYGSTTYYADSVKGRFTISRDNSKNTLYLQMNSLRAEDTAVYYCAKGRRIFDYWGQGTLVTVSS
VL: DIQMTQSPSSLSASVGDRVTITCRASQTIERRLNWYQQKPGKAPKLLIYRKSNRPSGVPSRFSGSGSGTDFTLTISSLQPEDFATYYCQQNNNWPTTFGQGTKVEIK
B6: NRP1-11 (VHH)
VHH: EVQLVESGGGLVQPGGSLRLSCAASGRTFTTYPMGWFRQAPGKEREFVAAITWNGASTSYADSVKGRFTISADNSKNTAYLQMNSLKPEDTAVYYCAKGGGYSGYDYDYWGQGTLVTVSS
B7: NRP1-15 (VHH)
VHH: EVQLVESGGGLVQPGGSLRLSCAASGFTFSNYDMGWFRQAPGKEREFVAAISWSGTLTSYADSVKGRFTISADNSKNTAYLQMNSLKPEDTAVYYCARQRETGHLILYSDYYYGMDVWGQGTLVTVSS
B8: NRP1-33 (VHH)
VHH: EVQLVESGGGLVQPGGSLRLSCAASGRTFSSGTMGWFRQASGKEREFVARINSDGSTNYADSVKGRFTISADNSKNTAYLQMNSLKPEDTAVYYCAKWSSSWYGYYYYGMDVWGQGTLVTVSS
B9: NRP1-4 (VHH)
VHH: EVQLVESGGGLVQPGGSLRLSCAASGNIFINNAMGWFRQAPGKERELVAAITSSSGRRWYADSVKGRFTISADNSKNTAYLQMNSLKPEDTAVYYCAARRIVNVEGAYRDWGQGTLVTVSS
B10: NRP1-8 (VHH)
VHH: EVQLVESGGGLVQPGGSLRLSCAASGFPLDDYAMGWFRQAPGKEREFVAAINWSGGSAVYADSVKGRFTISADNSKNTAYLQMNSLKPEDTAVYYCMRGGSYGDYGGYWGQGTLVTVSS
B11: NRP1-18 (VHH)
VHH: EVQLVESGGGLVQPGGSLRLSCAASGFRFSSYGMGWFRQAPGKEREFVAFISGNPSRTYYADSVKGRFTISADNSKNTAYLQMNSLKPEDTAVYYCAARPYQKYNWASASYNWGQGTLVTVSS
B12: NRP1-115 (antibody, IgG2, V domains shown)
VH: EVQLLESGGGLVQPGGSLRLSCAASGFTFGHYEMDWVRQAPGKGLEWVSSIDDRGRYTYYADSVKGRFTISRDNSKNTLYLQMNSLRAEDTAVYYCARSKIAFDYWGQGTLVTVSS
VL: DIQMTQSPSSLSASVGDRVTITCRASQNIRSYLNWYQQKPGKAPKLLIYGRNKRPSGVPSRFSGSGSGTDFTLTISSLQPEDFATYYCQQSYENPLTFGQGTKVEIK
B13: NRP1-132 (antibody, IgG2, V domains shown)
VH: EVQLLESGGGLVQPGGSLRLSCAASGFTFGDHGMGWVRQAPGKGLEWVSYITPKGDHTYYADSVKGRFTISRDNSKNTLYLQMNSLRAEDTAVYYCASLPKRGPRFDYWGQGTLVTVSS
VL: B12 VL with G50R, R51L, N52S, K53V, R54L, P55Q, S91G, E93T, N94L, L96W
B14: NRP1-118 (antibody, IgG2, V domains shown)
VH: EVQLLESGGGLVQPGGSLRLSCAASGFTFNKYPMMWVRQAPGKGLEWVSRISVAGRRTAYADSVKGRFTISRDNSKNTLYLQMNSLRAEDTAVYYCAKWRREGYTGSKFDYWGQGTLVTVSS
VL: DIQMTQSPSSLSASVGDRVTITCSASQDINKYLNWYQQKPGKAPKLLIYGTSNLESGVPSRFSGSGSGTDFTLTISSLQPEDFATYYCHTWDHHHTTGEHNVFGQGTKVEIK
B15: NRP1-6 (VHH)
VHH: EVQLVESGGGLVQPGGSLRLSCAASGLTYTMNWFRQAPGKEREFVAGFAGIGTVTSYADSVKGRFTISADNSKNTAYLQMNSLKPEDTAVYYCSGFDGYSGSDWGQGTLVTVSS
B16: NRP1-25 (VHH)
VHH: EVQLVESGGGLVQPGGSLRLSCAASGRTSNIYAMGWFRQAPGKERELVAAIRWSGVETYYADSVKGRFTISADNSKNTAYLQMNSLKPEDTAVYYCAADRMYRPVGNQYDWGQGTLVTVSS
B17: NRP1-5 (VHH)
VHH: EVQLVESGGGLVQPGGSLRLSCAASGNIDRLYVMGWFRQAPGKEREFVAAINWSSGTTVYADSVKGRFTISADNSKNTAYLQMNSLKPEDTAVYYCARSYSSLFRFDYWGQGTLVTVSS
B18: NRP1-69 (VHH)
VHH: EVQLVESGGGLVQPGGSLRLSCAASGFNFNWYPMGWFRQAPGKEREWVGTINSGGSTSYADSVKGRFTISADNSKNTAYLQMNSLKPEDTAVYYCARLPPRGSYYYYYYGMDVWGQGTLVTVSS
B19: NRP1-68 (VHH)
VHH: EVQLVESGGGLVQPGGSLRLSCAASGNIFINNAMGWFRQAPGKERELVAAITSSSGRRWYADSVKGRFTISADNSKNTAYLQMNSLKPEDTAVYYCTTDRWYSSNWWGQGTLVTVSS
B20: NRP1-67 (VHH)
VHH: EVQLVESGGGLVQPGGSLRLSCAASGLYLHSSAMGWFRQAPGKEREFVAAISSSDGSTEYADSVKGRFTISADNSKNTAYLQMNSLKPEDTAVYYCASVRYYDYWSGYYTPTHAGYFESWGQGTLVTVSS
B21: NRP1-73 (VHH)
VHH: EVQLVESGGGLVQPGGSLRLSCAASGFTFSGNWMGWFRQAPGKERELVAVILRGGSTNYADSVKGRFTISADNSKNTAYLQMNSLKPEDTAVYYCAVKIYSGSYSSPPGYNWGQGTLVTVSS
B22: NRP1-66 (VHH)
VHH: EVQLVESGGGLVQPGGSLRLSCAASGRTFRPYRMGWFRQAPGKERELVAAITSGTHKDYADSVKGRFTISADNSKNTAYLQMNSLKPEDTAVYYCAADYSGSYTSLWSRPERLWGQGTLVTVSS
B23: NRP1-64 (VHH)
VHH: EVQLVESGGGLVQPGGSLRLSCAASGSTFRGAAMGWFRQAPGKEREWVGTISSDGTTKYADSVKGRFTISADNSKNTAYLQMNSLKPEDTAVYYCAADRVLYYSDSRYYTGSNWGQGTLVTVSS
B24: NRP1-63 (VHH)
VHH: EVQLVESGGGLVQPGGSLRLSCAASGTFGSYTMGWFRQAPGKERELVATIWWTFDAPYYADSVKGRFTISADNSKNTAYLQMNSLKPEDTAVYYCAAYQAGWGDWGQGTLVTVSS

molecular target: neuropilin-1 (NRP1), analyte in SPR (UniProt O14786 22-644, limits assumed); assay: SPR, Carterra LSA, antibody coupled
Procedure: SPR experiments were performed on a Carterra LSA SPR biosensor equipped with a HC30M chip at 25° C. in HBS-TE. Antibodies were diluted to 10 μg/mL and amine-coupled to the sensor chip by EDC/NHS activation, followed by ethanolamine HCl quenching. Increasing concentrations of analyte were flowed over the sensor chip in HBS-TE with 0.5 mg/mL BSA with 5-minute association and 15-minute dissociation. Following each injection cycle the surface was regenerated with 2× 30-second injections of IgG elution buffer (Thermo). Data were analyzed in Carterra's Kinetics Tool software with 1:1 binding model.

Does B1 bind?
Result: no binding

Does B2 bind?
Result: no binding

For B3, which Kd is on record?
Its Kd is 408000 nM.

What about the koff of the same binder?
The koff was 0.0897 s⁻¹.

And the kon?
Its kon is 220 M⁻¹ s⁻¹.

Does B4 bind?
Result: no binding

Does B5 bind?
Result: no binding

Does B6 bind?
Result: no binding

Does B7 bind?
Result: no binding

Which Kd does the source give for B8 here?
Its Kd is 10.8 nM.

What about the koff of the same binder?
The koff was 0.0167 s⁻¹.

What about the kon of the same binder?
Its kon is 1.55e+06 M⁻¹ s⁻¹.

Which Kd does the source give for B9 here?
The Kd was 183 nM.

And the koff?
The koff was 0.047 s⁻¹.

What about the kon of the same binder?
Its kon is 256000 M⁻¹ s⁻¹.

With B10 as the binder, how does the Kd read?
The Kd was 91.1 nM.

What about the koff of the same binder?
The koff was 0.00283 s⁻¹.

What about the kon of the same binder?
The kon was 31100 M⁻¹ s⁻¹.

How did the Kd turn out when B11 was run?
Its Kd is 290 nM.

What about the koff of the same binder?
Its koff is 0.00374 s⁻¹.

And the kon?
Its kon is 12900 M⁻¹ s⁻¹.

B12 was tested. Which Kd did it give?
Its Kd is 87.4 nM.

And the koff?
Its koff is 0.00951 s⁻¹.

And the kon?
The kon was 109000 M⁻¹ s⁻¹.

Does B13 bind?
Result: no binding

Does B14 bind?
Result: no binding

Does B15 bind?
Result: no binding

For B16, which Kd is on record?
The Kd was 831 nM.

And the koff?
The koff was 0.00969 s⁻¹.

What about the kon of the same binder?
Its kon is 11700 M⁻¹ s⁻¹.

molecular target: T1, neuropilin-1 (NRP1) on HEK293 cells overexpressing NRP1 (UniProt O14786 22-923, limits assumed); assay: flow cytometry, HEK293-NRP1 vs HEK293
T1 construct: whole, on cells

Which “100 nM FACS (MFI Ratio)” value does the source give for B17 here?
The value was 14.8.

For B1, which “100 nM FACS (MFI Ratio)” value is on record?
Its value is 1.9.

For B18, which “100 nM FACS (MFI Ratio)” value is on record?
Its value is 8.2.

Which “100 nM FACS (MFI Ratio)” value does the source give for B19 here?
Its value is 4.9.

Which “100 nM FACS (MFI Ratio)” value does the source give for B20 here?
The value was 2.1.

B2 was tested. Which “100 nM FACS (MFI Ratio)” value did it give?
The value was 1.2.

With B21 as the binder, how does the “100 nM FACS (MFI Ratio)” value read?
The value was 5.9.

With B22 as the binder, how does the “100 nM FACS (MFI Ratio)” value read?
Its value is 1.1.

For B23, which “100 nM FACS (MFI Ratio)” value is on record?
Its value is 0.8.

How did the “100 nM FACS (MFI Ratio)” value turn out when B3 was run?
Its value is 9.2.

With B4 as the binder, how does the “100 nM FACS (MFI Ratio)” value read?
Its value is 2.1.

How did the “100 nM FACS (MFI Ratio)” value turn out when B5 was run?
Its value is 0.6.

With B6 as the binder, how does the “100 nM FACS (MFI Ratio)” value read?
Its value is 2.3.

For B7, which “100 nM FACS (MFI Ratio)” value is on record?
The value was 6.5.

Which “100 nM FACS (MFI Ratio)” value does the source give for B8 here?
The value was 335.

B24 was tested. Which “100 nM FACS (MFI Ratio)” value did it give?
Its value is 8.3.

How did the “100 nM FACS (MFI Ratio)” value turn out when B9 was run?
Its value is 30.9.

For B10, which “100 nM FACS (MFI Ratio)” value is on record?
Its value is 3.1.

For B11, which “100 nM FACS (MFI Ratio)” value is on record?
Its value is 20.8.

With B12 as the binder, how does the “100 nM FACS (MFI Ratio)” value read?
The value was 0.8.

With B13 as the binder, how does the “100 nM FACS (MFI Ratio)” value read?
The value was 0.8.

B14 was tested. Which “100 nM FACS (MFI Ratio)” value did it give?
The value was 4.5.

For B15, which “100 nM FACS (MFI Ratio)” value is on record?
The value was 0.5.

Which “100 nM FACS (MFI Ratio)” value does the source give for B16 here?
The value was 8.9.
